In IntAct's records for PubMed 21390248:

Columns and labels:
1433g_mouse Ywhag [1] = target: 1433g_mouse Ywhag (UniProt P61982)
1433g_mouse Ywhag [2] = target: 1433g_mouse Ywhag (UniProt P61982); remark: listed apart in the source

Sequence of UniProt P61982 (P61982 whole entry): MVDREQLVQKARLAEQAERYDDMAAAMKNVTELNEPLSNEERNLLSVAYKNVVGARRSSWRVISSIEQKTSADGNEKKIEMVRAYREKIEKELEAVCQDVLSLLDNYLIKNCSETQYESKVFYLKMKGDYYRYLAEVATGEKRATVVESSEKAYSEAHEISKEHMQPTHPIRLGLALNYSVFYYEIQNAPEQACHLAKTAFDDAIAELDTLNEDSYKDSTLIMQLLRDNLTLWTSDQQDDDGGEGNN

effect of a mutation on the interaction (1433g_mouse Ywhag [1])	effect of a mutation on the interaction (1433g_mouse Ywhag [2])	Substance
decreasing interaction	–	Leucine-rich repeat serine/threonine-protein kinase 2 (Mus musculus), Q5S006 R1441G
decreasing interaction	–	Leucine-rich repeat serine/threonine-protein kinase 2 (Mus musculus), Q5S006 S935A
decreasing interaction	–	Leucine-rich repeat serine/threonine-protein kinase 2 (Mus musculus), Q5S006 G2019S
–	decreasing interaction	Leucine-rich repeat serine/threonine-protein kinase 2 (Mus musculus), Q5S006 Y1699C
